Data reported in patent US20210230238A1 (DEUTSCHES KREBSFORSCHUNGSZENTRUM STIFTUNG DES FFENTLICHEN …, published 2021).

Legend:
Experiment in all cases: SPR, Dectin-1 immobilized, 1:1 model
murine annexin A1 = biological target: T1, murine annexin A1 (murine, UniProt P10107 2-346)
T1 construct: Recombinant protein; also called mAnxA1
T1 sequence: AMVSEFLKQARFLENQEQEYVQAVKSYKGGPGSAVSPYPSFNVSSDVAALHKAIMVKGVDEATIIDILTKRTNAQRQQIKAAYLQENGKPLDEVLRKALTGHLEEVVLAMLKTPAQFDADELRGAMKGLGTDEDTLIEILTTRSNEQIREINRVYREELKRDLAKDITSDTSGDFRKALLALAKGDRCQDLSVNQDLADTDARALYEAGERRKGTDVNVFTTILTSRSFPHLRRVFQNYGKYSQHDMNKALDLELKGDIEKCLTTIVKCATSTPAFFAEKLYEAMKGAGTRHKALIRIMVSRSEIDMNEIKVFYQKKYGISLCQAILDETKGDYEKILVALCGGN

[1] = biological target: T2, murine annexin A1 core domain (murine, UniProt P10107 41-344)
T2 construct: Recombinant core domain; also called mAnxA1 core; core annexin A1 domain
T2 sequence: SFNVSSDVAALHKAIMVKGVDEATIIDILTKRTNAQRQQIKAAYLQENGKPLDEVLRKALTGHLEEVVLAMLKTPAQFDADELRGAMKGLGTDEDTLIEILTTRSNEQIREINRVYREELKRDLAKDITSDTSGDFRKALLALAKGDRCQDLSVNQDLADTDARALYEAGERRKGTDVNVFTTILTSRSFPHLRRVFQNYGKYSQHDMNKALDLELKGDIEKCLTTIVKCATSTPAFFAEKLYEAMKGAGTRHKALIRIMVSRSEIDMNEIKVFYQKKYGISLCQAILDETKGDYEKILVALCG

murine annexin A5 = biological target: T3, murine annexin A5 (murine, UniProt P48036 2-319)
T3 construct: Recombinant protein; also called mAnxA5
T3 sequence: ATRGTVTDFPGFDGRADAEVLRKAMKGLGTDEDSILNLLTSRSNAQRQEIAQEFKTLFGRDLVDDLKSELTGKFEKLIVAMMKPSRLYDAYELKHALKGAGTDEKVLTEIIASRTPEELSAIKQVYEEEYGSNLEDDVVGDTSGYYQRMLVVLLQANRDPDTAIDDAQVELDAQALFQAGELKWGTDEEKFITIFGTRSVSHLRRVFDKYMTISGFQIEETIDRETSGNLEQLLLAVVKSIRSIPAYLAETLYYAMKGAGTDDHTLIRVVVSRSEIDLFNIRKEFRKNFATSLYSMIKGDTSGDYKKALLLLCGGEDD

murine annexin A13 = biological target: T4, murine annexin A13 (murine, UniProt Q99JG3 2-317)
T4 construct: Recombinant protein; also called mAnxA13
T4 sequence: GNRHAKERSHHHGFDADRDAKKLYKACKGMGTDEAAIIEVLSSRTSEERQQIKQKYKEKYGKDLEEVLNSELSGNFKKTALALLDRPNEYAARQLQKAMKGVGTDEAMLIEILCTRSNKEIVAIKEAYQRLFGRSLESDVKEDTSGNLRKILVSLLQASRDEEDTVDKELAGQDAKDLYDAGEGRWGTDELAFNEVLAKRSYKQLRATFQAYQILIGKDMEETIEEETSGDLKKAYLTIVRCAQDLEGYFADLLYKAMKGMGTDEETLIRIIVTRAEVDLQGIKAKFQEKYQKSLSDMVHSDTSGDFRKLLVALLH

Measured: Kd

B1: Dectin-1 (receptor)
chain: GHNSGRNPEEKDNFLSRNKENHKPTESSLDEKVAPSKASQTTGGFSQPCLPNWIMHGKSCYLFSFSGNSWYGSKRHCSQLGAHLLKIDNSKEFEFIESQTSSHRINAFWIGLSRNQSEGPWFWEDGSAFFPNSFQVRNTAPQESLLHNCVWIHGSEVYNQICNTSSYSICEKEL
~100 nM: all assays above
